In the nanobody polyreactivity screen of Harvey et al. (2022):

Assay: yeast display, Sf9 membrane polyspecificity reagent, FACS + sequencing; frameworks hold sequencing errors
In short: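 A nanobody's polyreactivity label depends on the gate it was sorted from. Yeast display cells were stained with 10% biotinylated, detergent-solubilized Sf9 membrane reagent for 1 hour at 4 °C, enriched on streptavidin microbeads and sorted by FACS. The low and high (top ~1%) gates were set on anti-HA fluorescence for expression and streptavidin fluorescence for reagent binding.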

Row | Sequence | polyreactivity (PSR sort gate)
1 | QVQLVESGGGLVQAGGSLRLSCAASGRTFAYNAMGWYRQAPGKERELVAANTDSDGNTNYADSVKRRFTISRDNAKNTVYVLLNSLIPEDTAVDYCAADYIILVHVTRGFGYEYWGQGTQVTVSS | low polyreactivity
2 | QVQLVESGGGLVQAGGSLRLSCAASGRTFDPNAMGWYRQAPGKERELVAAIRWTGTSTYYADSVKGRFTISRDNAKNTVYLQMNSLKPEDTAVDYCNARGSYRLRYDYWGQGTQVTVSS | high polyreactivity
3 | QVQLVESGGGLVQAGGSLRLSCAASGLTFYYYVMGWYRQAPGKERELVAAISSSGGNTYYADSVKGRFTISRDNEKNTVYLQMNSLKPEDTAVYYCAAGQKRTLDNYWGQGTQVTVSS | high polyreactivity
4 | QVQLVESGGGLVQAGGSLRLSCAASGRTFYQYDMGWYRQAPGKERDLVAAIDWSGGSTYYADSVKGRFTISRDNAKNTVYLQMNSLKPEDTAVYYCNADAYPHPVVGYDYWGQGTQVTVSS | low polyreactivity
5 | QVQLVESGGGLVQAGGSLRLSCSASGSTFESNAMGWYRQAPGKERELVASISGSGGSTFYADSVKGRFTISRDNAKNTVYLQMNSLKPEDTAVYYCAAYKEPYYEEYGYWGQGTQVTVSS | low polyreactivity
6 | QVQLVESGGGLVQAGGSLRLSCAASGFIFGSYAMGWYRQAPGKERELVAAITSGTTTYYADSVKGRFTISRDNAKNTVYLQMNSLKPEDTAVYYCAATLIYHYWQLFIISTMGYWGQGTQVTVSS | low polyreactivity
7 | QVQLVESGGGLVQAGGSLRLSCAASGSTFGLYAMGWYRQAPGKERELVAAITGRASSTYYADSVKGRFTISRDNAKNTVYLQMNSLKPEDTAVYDCAASGFGQISNPRRDYWGQGTQVTVSS | high polyreactivity
8 | QVQLVESGGGLVQAGGSLLLSCAASGIIFRYYAMGWYRQAPGKERELVADISSDGGTYYADSVKGRFTISLDNATNTVYLQMNSLKPEDTAVDYCAADYQFYWHYYYWGQGTQVTVSS | high polyreactivity
9 | QVQLVESVGGLVQAGGSLRLSCAASGSTFNQYAMGWYRHPPGKERELVAAISWSGGRTYYADSVKGRFTISRDNAKNTVYLQMNSLKPEDTSVYYCNKLTRDGRKEDYWGQGTQVTVSS | high polyreactivity
10 | QVQLVESWGGLVQAGGSLRLSCAASGRIFWAYAMGWYRHAPGKERELVAGITFTGGRTYYADSVKGRFTISRDNAKNTVYLQMNSLKPEDTAVYYCAAAGLDVGRKDRDGYWGQGTQVTVSS | low polyreactivity
11 | QVQLVESGGGLVQAGGSLRLSCAASGRIFSFNAMGWYRQAPGKERELVATIRTDGTTNYADSVKGRFTISRDNAKNTVYLQMNSLKPEDTAVYYCAANRKRFAFGYWGQGTQVTVSS | high polyreactivity
12 | QVQLVESGGGLVQAGGSLRLSCAGSGRTFVYYAMGWYRQAPGREREFVAAISRSGGRTSYADSVKGRFTISRDNAKNTVYLHMNSLKPEDTAVNYCAAEKRTQPTSREYYWGQGTQVTVSS | high polyreactivity
13 | QVQLVESGGGLVQAGGSLRLSCAASGSTFPTNAMGWYRPAPGKERELVATFTTGGSTYYADSVKGRFTISRDNAKNTVYLQMNSLKPVDTAVYYCNAEYVYLIFSVYLYDYDYWGQVTQVTVSS | low polyreactivity
14 | QVQLVESGGGLVQAGGSLRLSCAASGRTLTSYAMGWYRQAPGKERELVARISNGGNTKYADSVNGRFTISRDNAKNTVYLQMNSLKPEDTAVYYCAADYSYYHGPSRHKHDYWGQGTKVTVSS | low polyreactivity
15 | QVQLVESGGGLVQAAGSLRLSCAASGSIFGPNAMGWYRQAPGKERELVASITLSGGSTYYADSVKGRFTISRDNAKNNVYLQMNSLKPVDTAVYYCNADLLPADAPLWVTGGDYWGQGTQVTVSS | low polyreactivity
16 | QVQLVESGGGLVQAGGSLRLSCAASGFTFSRYAMGWYRPAPGKERELVAAITSSGGSTYYADSVKGRFTISRDNAKNTVYLQMNSLKPEDTAVYYCAAGKYTASNGYGYWGQGTQVTVSS | high polyreactivity
17 | QVQLVESGGGLVQAGGSLRLSCAASGFTFDSYAMGWYRQAPGKERELVAAITSGDSTHYADSVKGRFTISRDNAKNTVYLQMNSLKPEDTAVYYCAASGFPYPYDYWGQGTQVTVSS | low polyreactivity
18 | QVQLVESGGGLVQAGGSLRLSCAASGRTFYSYAMGWYRQAPGKERELVATITNGDTTNYADSVKGRFTISRDNAKNTVYLQMNSLKPEDTAVYYCAKDISPGYDEYDYWGQGTQVTVSS | low polyreactivity
19 | QVQLVESGGGLVQAGGSLRLSCAASGRIFRYNAMGWYRQAPGKERELVAAITNGGSTNYADSVKGRFTISRDNAKNTVYLQMNSLKPEDTAVYYCAAEGNGYLVSTWWVRYEYWGQGTQVTVSS | low polyreactivity
20 | QVQLVESGGGLVQAGGSLRLSCAASGRIFLQYAMGWYRQAPGKERELVAGISSRGGSTYYADSVKGRFTISRDNAKNTVYLQMNSLKPEDTAVYYCAAQTKRIRYVYKHYYWGQGTQVTVSS | high polyreactivity
21 | QVQLVESGGGLVQAGGSLRLSCAASGFTFPYYSMGWYRQAPGTERELVAPISYNGGSTYYADSVMGRFTISRDNAKNTVYLQMNSRNPEDTAVYYCNAVYSDSGVVGYYYWGQGTQVTVSS | high polyreactivity
22 | QVQLVESGGGLVQAGGSLRLSCAASGSTFDINAMGWYRQAPGKERELFASITFSGGSTYYADSVKGRITISRDYEKNNVYLQMNSLKPEDTAVYYCAADSSGEYPGGYWGQGTQVTVSS | low polyreactivity

Row | Sequence | polyreactivity (PSR sort gate)
23 | QVQLVESGGGLVQAGGSLRLSCAASGFIFPHNTMGWYRQAPGKERELVAAISSGGSTNYADSVKGRFTISRDNAKNTVYLQMNSLKPEDTAVYYCNKRVRYHSGFGYWGQGTQVTVSS | low polyreactivity
24 | QVQLVESGGGLVQAGGSLRLSCAASGSTFSRYAMGWYRPAPGKERELVAAITRSGGGTHYADSVKGRFTISRDNAKNTVYLQMNSLKPEETAVYYCAKRQSGYRYDYWGQGTEVTVSS | low polyreactivity
25 | QVHLVESGGGLVQAGGILLLSCAASGYDMGWYRQAPGKERELVAAISRGGSTSYADSVKGRFTISRDNAKNTVYLQMNSLKPEDTAVYYCAARYGSYRVGYDYWGQGTQVTVSS | low polyreactivity
26 | QVQLVESGGGLVQAGGSLSISCAASGRNFGYYTMGWYRQAPGKERELGAAITSGGRTNYADSVKGRFTISRDNAKNTVYLQMNSLKPEDTAVYYCNARRDSTRRGTWYEYWGQGTQVTVSS | high polyreactivity
27 | QVQLEDSGGGLVQAGGSLRLSSPASGRIFGWYAMGWYRQAPGKERELVATISYSGASTYYADSVKGRFTISRDNAKNTVYLQMNSLKPEDTAVYYCAAVYHKNGCGDYSWGQGTQVTVSS | high polyreactivity
28 | QVQLVESGGGLVQAGGSLRLSCAASGRTFYYYAMGWYRQAPGKERELVAAITGSGANTYYADSVKGRFTISRDNAKNTVYLQMNSLKPEDTAVYYCNTRTLVAMGYWGQGTQVTVSS | high polyreactivity
29 | QVQLVESGGGLVQAGGSLRLSCASSGRIFWRNAMGWYRQAPGKERELVAAITSGGRTNYADSVKGRFTISRDNAKNPVYLQMNSLKPEDTAVYYCNALWRGRYGYWGQGTQVTVSS | high polyreactivity
30 | QVQLVESGGGLVQAGGSLRLSCAASGRTFGEYAMGWYRQAPGKERELVAAISSAGSTYYADSVKGRFTISRDNAKNTVYLQMNSLKPEDTAVYYCAASRKYGYGYWGQGTQVTVSS | high polyreactivity
31 | QVQHVESGGGLVQAGGSLRLSCAASGRIFYFNAMGWSSQAPGKERELVAAISGSGGDTYYADSVKGRFTISRDNAKNTVYLQMNSLKPEDTAVYYCAAEVYPWGQGTQVTVAS | low polyreactivity
32 | QVQLVESGGGLVQAGGSLRLSCAASGSTFDFYAMGWYRQAPGKERELVAAISKSGGSTYYADSVKGRFTISRDTAKNTVYLQMNSLKPEDTAVYYCAAYVSYRMYWGQGTQVTVST | high polyreactivity
33 | QVQLVESGGGLVQAGGSLRLSCAASGFIFYYNAMGWYRQAPGKERELVAGISRSAGSTYYADSVKGRFTISRDNAKNTVYLQMNSLKPEDTAVYYCAALYLSYITGTSYYWGQGTQVTVSS | low polyreactivity
34 | QVQLVESGGGLVQAGGSLRLSCAASGGIFYINAMGWYRQAPGKERELVAAISRDGTITYYADSVKGRFTISRDNAKNTVYLQMNSLKPEDTAVYYCAADASIQSWYSIYDYWGQGTQVTVSS | high polyreactivity
35 | QVQLVESGGGLVQAGGSLRLSCAASGFTFQYYDMGWYRQAPGKERELVAAISWSGGSTYYADSVKGRFTISRDNAKNTVYFQMNSLKPEDTAVYYCAAGYTRSRHYTPYDYWGQGTQVTVSS | high polyreactivity
36 | QVQLVESGGGLVQAGGSLRLSCAASGSTFSQYAMGWYRQAPGKERELVAAITTSDGSTNYADSVKGRFTISRDNAKNTVYLQMNSLKPEDTAVYYCNTEYFYYSFGYWGQGTQVTVSS | low polyreactivity
37 | QVQLKESGGCLVPSRGSLRQSCAASGSISGPHVKGWYRQAPGKEREFVAAINVGANTYYADNVKGRFTISRDNANNPGYLQMNSLKPEDTAVYFCAAVYFGDIGHEYWGQGTQVTVSC | low polyreactivity
38 | QVQLVESGGGLVQAGGSLRLTCAASGYTFYPYAMGWYRQAPGKERELVAAISWSGGSTYYADSVKGRFTISRDNAKNTVYLQMNSLKPEDTAVYYCNADSGWFGYDYWGKGTQVTVSS | low polyreactivity
39 | QVQLVESGGGLVQAGGSLRLSCAASGRTFWTNAMGWYRQAPGKERELVAAISWTTGSTNYADSVKGRFTISRDNAKNTVYLQMNSLKPEDTAVYYCAAQTYCTFHTYYYWGQGTQVTVSS | low polyreactivity
40 | QDQIVESGGGLVQAGGSLRLSCAASGRTFGVNTMGWSRQAPGKVREMVASISTSGGSTYADSVKGRFTISRDNPKNTVYLQMNSLKPEDSAVYYCAKDTDAVYDEFDSWGQGTQVTVSS | low polyreactivity
41 | QVQLVESGGGLVQAGGSLRLSCAASGSIFNYNDMGWYRQAPGKERELVAAIDSSGTSTYYADSVKGRFTISRDNAKNTVYLQMTSLKPEDTAVYYCNADYRGWGYHMDYWGQGTQVTVSS | low polyreactivity
42 | QVQLVESGGGLVQAGGSLRLSCAASGITLYRYVMGWYRQAPGKERELVADISGRGTSTYYADSVKGRFTISRDNAKNTVYLQMNSLKPEETAVYYCNAEYTKTGALVIPYTYYYAEDYWGQGTQVTVSS | low polyreactivity
43 | QVQLVESGGGLVQAGGSLRLSCAASGSIFLYARGWYRQAPGKERELVAAINRRGGSTYYADSVKGRFTISRDNAKNTVYLQMNSLKPEDTAVYYCAVVYLLPRYWWRYDYWGQGTQVTVSS | low polyreactivity
